Data on 4 molecules can be found in paper PMC10783091, “Higher affinities of fibers with cell receptors increase the infection capacity and virulence of human adenovirus type 7 and type 55 compared to type 3” (Microbiology Spectrum, 2023).

Data set [1] has as its target Recombinant fiber knob of HAdV-55 (human adenovirus type 55). Put plainly: SDS-PAGE of unboiled (native) against boiled samples; purified knobs in loading buffer kept on ice (native) or heated at 98°C for 5 min (boiled); 12% SDS-PAGE.
For data set [2], the target named is recombinant human desmoglein 2 (DSG2) (human) (UniProt Q14126). The data set is described as follows: SPR; DSG2 amine-coupled on a CM5 chip (3,500-3,700 RU), knobs as analytes; 25°C; HBS-EP (10 mM HEPES, 150 mM NaCl, 3 mM EDTA, 0.05% Tween 20, pH 7.4); association 180 s, dissociation 540 s, 30 µL/min; Biacore 8K. (In general: In SPR one partner is held on a chip, and binding of the other changes the refractive index at the surface.)

Data set [3] concerns the target Recombinant fiber knob of HAdV-7 (human adenovirus type 7) (UniProt P15141). Put plainly: SDS-PAGE of unboiled (native) against boiled samples; purified knobs in loading buffer kept on ice (native) or heated at 98°C for 5 min (boiled); 12% SDS-PAGE.
Data set [4] deals with the molecule itself. The description is as above.
Data set [5] concerns the target T1, recombinant human desmoglein 2 (DSG2) (human, UniProt Q14126 50-609).
T1 construct: desmoglein 2, human, recombinant; No catalogue number, limits or tags are printed for the bought protein; The source is named for the SPR; the ELISA says only 'human DSG2'; also called human DSG2; receptor DSG2; source: bought: Creative Biomart
T1 sequence: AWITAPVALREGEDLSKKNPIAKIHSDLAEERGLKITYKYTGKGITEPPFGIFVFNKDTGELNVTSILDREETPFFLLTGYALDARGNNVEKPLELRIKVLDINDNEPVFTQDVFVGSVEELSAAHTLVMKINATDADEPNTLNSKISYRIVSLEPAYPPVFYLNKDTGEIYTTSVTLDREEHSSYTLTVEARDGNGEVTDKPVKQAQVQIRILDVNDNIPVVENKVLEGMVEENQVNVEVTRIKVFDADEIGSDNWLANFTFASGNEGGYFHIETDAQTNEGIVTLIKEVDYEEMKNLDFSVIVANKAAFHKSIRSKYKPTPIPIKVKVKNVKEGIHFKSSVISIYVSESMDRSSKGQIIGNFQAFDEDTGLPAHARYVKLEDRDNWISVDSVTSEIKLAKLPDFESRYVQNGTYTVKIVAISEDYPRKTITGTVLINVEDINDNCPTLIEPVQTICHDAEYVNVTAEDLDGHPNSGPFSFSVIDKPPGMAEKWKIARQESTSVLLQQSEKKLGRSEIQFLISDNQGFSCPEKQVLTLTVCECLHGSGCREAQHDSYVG
Put plainly: SPR; DSG2 amine-coupled on a CM5 chip (3,500-3,700 RU), knobs as analytes; 25°C; HBS-EP (10 mM HEPES, 150 mM NaCl, 3 mM EDTA, 0.05% Tween 20, pH 7.4); association 180 s, dissociation 540 s, 30 µL/min; Biacore 8K. Particulars: both partners purified.

On to “Recombinant fiber knob of HAdV-55 (domain or fragment)”, for which the stoichiometry N in data set [1] is 3. For the same molecule, in data set [2], the Kd worked out at 1.25 nM. Turning to “Recombinant fiber knob of HAdV-7 (from UniProt P15141 1-343) (domain or fragment)”, the stoichiometry N in data set [3] is 3. The Kd in data set [2] is 2.21 nM.

B1: Recombinant fiber knob of HAdV-5 (domain or fragment)
chain: GAITVGNKNNDKLTLWTTPAPSPNCRLNAEKDAKLTLVLTKCGSQILATVSVLAVKGSLAPISGTVQSAHLIIRFDENGVLLNNSFLDPEYWNFRNGDLTEGTAYTNAVGFMPNLSAYPKSHGKTAKSNIVSQVYLNGDKTKPVTLTITLNGTQETGDTTPSAYSMSFSWDWSGHNYINEIFATSSYTFSYIAQE
notes: fiber protein of human adenovirus type 5, fiber knob with the last shaft repeat; Negative control knob; also called Ad5K; Ad5k; not shown: His tag, N-terminal, kept
Turning to B1, the “stoichiometry N” value in data set [4] is 3.

B2: Recombinant fiber knob of HAdV-3 (domain or fragment)
chain: KLGNGLTFDSSNSIALKNNTLWTGPKPEANCIIEYGKQNPDSKLTLILVKNGGIVNGYVTLMGASDYVNTLFKNKNVSINVELYFDATGHILPDSSSLKTDLELKYKQTADFSARGFMPSTTAYPFVLPNAGTHNENYIFGQCYYKASDGALFPLEVTVMLNKRLPDSRTSYVMTFLWSLNAGLAPETTQATLITSPFTFSYIREDD
notes: fiber protein of human adenovirus type 3, fiber knob with the last shaft repeat; also called Ad3K; Ad3k; not shown: His tag, N-terminal, kept
Regarding B2, the Kd in data set [5] turned out to be 6.7 nM.

What is called stoichiometry N is a count of units in the complex or per binding partner. One may read the Kd as the concentration at which binding is half-saturated.
